Experimental data reported in PMC10175261.

Experiments:
[1] = molecular target: PriA;PriB C-term Arg44Ala LD (Escherichia coli;Escherichia coli, UniProt P17888;P07013 1-732;1-104+1-104, |R44A;internal_change); details: protein: recombinant;recombinant; tags: N-terminal His;; copies: 1;1; label: 5'-32P on 3L-98 (strand 2); fork 1:2 1:3; ssDNA lagging arm (strand 2)
[2] = molecular target: PriA;PriB N-term Arg44Ala LD (Escherichia coli;Escherichia coli, UniProt P17888;P07013 1-732;1-104+1-104, |R44A;internal_change); details: protein: recombinant;recombinant; tags: N-terminal His;; copies: 1;1; label: 5'-32P on 3L-98 (strand 2); fork 1:2 1:3; ssDNA lagging arm (strand 2)
PriA;PriB = PriA;PriB (Escherichia coli;Escherichia coli, UniProt P17888;P07013 1-732;1-104, |); details: protein: recombinant;recombinant; tags: N-terminal His;none; copies: 1;2; label: 5'-32P on 3L-98 (strand 2); fork 1:2 1:3; ssDNA lagging arm (strand 2)
PriA Thr482Ala = PriA Thr482Ala (Escherichia coli, UniProt P17888 1-732, T482A); details: protein: recombinant; tags: N-terminal His; label: 5'-32P on 3L-98 (strand 2); fork 1:2 1:3; ssDNA lagging arm (strand 2)
PriA Asp438Ala = PriA Asp438Ala (Escherichia coli, UniProt P17888 1-732, D438A); details: protein: recombinant; tags: N-terminal His; label: 5'-32P on 3L-98 (strand 2); fork 1:2 1:3; ssDNA lagging arm (strand 2)
PriA His483Ala = PriA His483Ala (Escherichia coli, UniProt P17888 1-732, H483A); details: protein: recombinant; tags: N-terminal His; label: 5'-32P on 3L-98 (strand 2); fork 1:2 1:3; ssDNA lagging arm (strand 2)
PriA CRR triple variant = PriA CRR triple variant (Escherichia coli, UniProt P17888 1-732, D438A;T482A;H483A); details: protein: recombinant; tags: N-terminal His; label: 5'-32P on 3L-98 (strand 2); fork 1:2 1:3; ssDNA lagging arm (strand 2)

B1: Fork 1 (structured_DNA)
DNA 1: GCAAGCCTTCTACAGGTCGACCGTCCATGGCGACTCGAGACCGCAATACGGATAAGGGCTGAGCACGCCGACGAACATTCACCACGCCAGACCACGTA
DNA 2: GACTATCTACGTCCGAGGCTCGCGCCGCAGACTCATTTAGCCCTTATCCGTATTGCGGTCTCGAGTCGCCATGGACGGTCGACCTGTAGAAGGCTTGC
DNA 3: TACGTGGTCTGGCGTGGTGAATGTTCGTCGGCGTGCTC
B1: binds [1]; binds [2]; binds (PriA;PriB). The binding signal (PriA Thr482Ala) was 91.3 ± 6.5 % fork shifted, the binding signal (PriA Asp438Ala) was 95 ± 1.9 % fork shifted and the binding signal (PriA His483Ala) was 92.2 ± 3.7 % fork shifted. For the same binder, the binding signal (PriA CRR triple variant) was 95.8 ± 3.1 % fork shifted.
